Columns and labels:
Assay in all cases: SPR; Biacore T200; integrin (approx. 1000 RU) or TGFβRII (approx. 400 RU) amine-coupled to CM5 chip; galectin-3 2-fold serial dilutions injected (19.5-5000 nM integrins, 156.3-20000 nM TGFβRII), 30 μl/min, 20 °C, contact 120 s; HBS-P+ pH 7.4 ±1 mM MnCl2; steady-state fit, one-site specific binding; minimum number of binding sites = maximum response/Rmax
[1] = biological target: recombinant human integrin αvβ6 (glycosylated) (human) (UniProt P06756)
[2] = biological target: recombinant human integrin αvβ5 (glycosylated) (human) (UniProt P06756)
[3] = biological target: recombinant human integrin αvβ1 (glycosylated) (human) (UniProt P06756)

- stoichiometry N (individual galectin-3 proteins) [1]: > 8
- binding response relative to αvβ6 [2]: 2 fold
- stoichiometry N (individual galectin-3 proteins) [2]: > 16
- binding response relative to αvβ6 [3]: 2 fold
- stoichiometry N (individual galectin-3 proteins) [3]: > 16
Substance: recombinant human galectin-3 (expressed and purified for SPR) (from UniProt P17931 1-250) (natural protein)
